Measured values: the nanobody polyreactivity screen of Harvey et al. (2022)

test: yeast display, Sf9 membrane polyspecificity reagent, FACS + sequencing; frameworks hold sequencing errors
Outline: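 A synthetic nanobody library was expressed on Saccharomyces cerevisiae BJ5465 by galactose induction for 36–48 hours. The library was stained for 1 hour at 4 °C with 10% biotinylated, detergent-solubilized Sf9 membrane reagent and enriched with streptavidin microbeads before FACS. Low and high (top ~1%) gates were set on anti-HA fluorescence for expression and streptavidin fluorescence for reagent binding, and each polyreactivity label reflects the gate of origin.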

Sequence	polyreactivity (PSR sort gate)
QVQLVESGGGLVQAGGSLRLSCAASGRIFGYNAMGWYRQAPGKERELVAAISSTGNTYYADSVKGRFTISRDNAKNTVYLQMNSLKPEDTAVYYCARSWLYSQRRYDYWGQGTQVTVSS	low polyreactivity
QVQLVESGGGLVQAGGSLRLSCAASGRIFGYNAMGWYRQAPGKERELVAAITNGGSTNYADSVKGRFTISRDNAKNTVYFHMNSLKPEDTAVYYCAVKWYPPGHDYWGQGTQVTVSS	low polyreactivity
QVQLVESGGGLVQAGGSLRLSCAASGRIFGYYAMGGYRQAPGKERELVASISYSGASSYYADSVKGRFTISRDNAKNTVYLQMNSLKPEDTAVYYCNTDGDDFFHVIYDYWGQGTQVTVSS	low polyreactivity
QVQLVESGGGLVQAGGSLRLSCAASGRIFGYYAMGWSRQAPGKERELVAAISSDGSTYYADSVKGRFTISRDNAENTVYLQMNSLKPEDTAVYYCAKEGRWDSYGYSAQPFYYWGQGTQVTVSS	low polyreactivity
QVQLVESGGGLVQAGGSLRLSCAASGRIFGYYAMGWYIQAPGKERELVAGIDWSGGNTYYADSVKGRFTISRDNAKNTVYLQMNSLKPEDTAVYYCNTEGGRDTAWYDYWGQGTQVTVSS	low polyreactivity
QVQLVESGGGLVQAGGSLRLSCAASGRIFGYYAMGWYRQAPGKERELVAAISSSGTSTYYADSVKGRFTISRDNAKNTVYLQMNSLKPEDTAVYYCAAYTYYEGDYWGQGTQVTVSS	low polyreactivity
QVQLVESGGGLVQAGGSLRLSCAASGRIFGYYAMGWYRQAPGKERELVAAISYNVVSTNYADSVKGRFTISRDNPKNTVYLQMNSLKPEDTAVYYCAADYGRPYTAFDYWGQGTQVTVSS	low polyreactivity
QVQLVESGGGLVQAGGSLRLSCAASGRIFGYYAMGWYRQAPGKERELVAAITINGGRTYYADSVKGRFTISRDNAKNTVYLQMNSLKPEDTAVYYCTATSRYNRLGYWGQGTLVTVSS	high polyreactivity
QVQLVESGGGLVQAGGSLRLSCAASGRIFGYYAMGWYRQAPGKESELVATINSVGSTNYADSVKGRFTISRDNAKNTVYLQMNSLKPEDTAVYYCATDSAYTFFTYRLWRHGYWGQGTQVTVSS	low polyreactivity
QVQLVESGGGLVQAGGSLRLSCAASGRIFGYYTMGSYRQAPGKEMELVATINWSGGSTYYADSVKGRFTISRDNAKNTVYLQMNSLKPEDTAVYYCADRPALWGRYRGYDYWGQGTQVTVSS	high polyreactivity
QVQLVESGGGLVQAGGSLRLSCAASGRIFGYYVMGWYRQAPGKERELVAAISRSGGSTYYADSVKGRFTISRDNAKNTVYLEMNSLKPEDTAVYYCANYSPRYPNYDYWGQGTQVTVSS	high polyreactivity
QVQLVESGGGLVQAGGSLRLSCAASGRIFHKYAMGWYRQAPGKERELVATIRSDDITYYADSVKGRFTISRDNAKNTVYLQMNSLKPEDTAVYYCAAYFWRYSSLYYYWGQGTQVTVSS	high polyreactivity
QVQLVESGGGLVQAGGSLRLSCAASGRIFHQYAMGWYRQAPGKERELVAAITTRGTSTYYADSVKGRFTISRDNAKNTVYLQMNSLKPEDTAVYYCAAKFFGSVGHVAGDYWGQGTQVTVSS	high polyreactivity
QVQLVESGGGLVQAGGSLRLSCAASGRIFHRYAMGWYRQAPGKERELVAAISYSTARTYYADSVKGRFTISRDNAKNTVYLQMNSLKPEDTAVYYCAARYQGGYDYWGQGTQVTVSS	high polyreactivity
QVQLVESGGGLVQAGGSLRLSCAASGRIFHVYAMGWYRQAPGKERELVAAISSGDRTYYADSVKGRFIISRDNAKNTVYLQMNSLKPEDTAVYYCAATAQYYHYHLAKYDYWGQGTQVTVSS	low polyreactivity
QVQLVESGGGLVQAGGSLRLSCAASGRIFHWYVMGWYRQAPGKERELVAAISWSSGSTYADSVKGRFTISRDNAKNTVYLQMNSLKPEDTAVYYCNAKTYYPPFGYWGQGTQVTVSS	low polyreactivity
QVQLVESGGGLVQAGGSLRLSCAASGRIFHYYAMGWYRQAPGTERELVAAITSSGGSTYYADSVKGRFTISRDNAKNTVYLQMNSLKPEDTAVYYCAAGLIVGRFLRYDYWGQGTQVTVSS	high polyreactivity
QVQLVESGGGLVQAGGSLRLSCAASGRIFIANTMGCYRQAPGKERELVAAITQRGDSTYYADSVKGRFTISRDNAKNTVYLQMNSLKPEDTAVYYCAARYYLSSYVRYNYWGQGTQVTVSS	high polyreactivity
QVQLVESGGGLVQAGGSLRLSCAASGRIFIGNAMGWYRQAPGKERELVAAISKRGGSTYYADSVKGRFTISRDNAKNTVYLQMNSLKQEDTAVYYCNKESLYREFDYWGQGTQVTVSS	low polyreactivity
QVQLVESGGGLVQAGGSLRLSCAASGRIFIGNAMGWYRQAPGKERELVADISYSGGTTYYADSVKGRFTISRENAKNTVYVQMNSLKPVDTAVYYCNKYDPRPVWQGWVWIEYYYWGQGTQVTVSS	low polyreactivity
QVQLVESGGGLVQAGGSLRLSCAASGRIFIHYAMGWYRQAPGKERELVAAISWGGGRTYYADSVKGRFTISRDNAKNTVYLQMNSLKPEDTAVYYCAAAGRGSGYDYWGQGTQVTVSS	high polyreactivity
QVQLVESGGGLVQAGGSLRLSCAASGRIFIHYAMGWYRQAPGKERELVAAITFNGGSTYYADSVKGRFTISRDNAKNTVYLQMNSLKPEDTAVYYCAARLSKRSGYYYWGQGTQVTVSS	high polyreactivity
QVQLVESGGGLVQAGGSLRLSCAASGRIFIINALGWYRQAPGKERELVAAINTGGGTNYADSVKGRFTISRDNAKNTVYLQMNSLKPEDTAVYYCAARTYDYRARHKDGYWGQGTQVTVSS	high polyreactivity
QVQLVESGGGLVQAGGSLRLSCAASGRIFILYAMGWYRQAPAKERALVAAISSGGGRTYYADSVKGRFTISRDNAKNTVYLQMNSLKPEDTAVYYCATRRRRTSQRQGYDYWGQGTQVTVSS	high polyreactivity
QVQLVESGGGLVQAGGSLRLSCAASGRIFISNAMGWYRQAPGKERELVAAISWRGTRTYYADSVKGRFTISRENAKNTVYLEMNSLKPEVTAVYYCNADRHRSRGMDYWGQGTQVTVSS	high polyreactivity
QVQLVESGGGLVQAGGSLRLSCAASGRIFITNAMGWYRQAPGKERELVAVISYIGGRTYYADSVKGRFTISRDNAKNTVYLQMNSLKPEATAVYYCAARRSRPTYYSTGVNYWGQGTQVTVSS	high polyreactivity
QVQLVESGGGLVQAGGSLRLSCAASGRIFIVNTMGWYRQAPGKERELVATIDSDGDTNYADSVKGRFTISRDNAKNTVYLQMNSLKPEDTAVYYCAASYTHTLAALKGGRMDYWGQGTQVTVSS	low polyreactivity
QVQLVESGGGLVQAGGSLRLSCAASGRIFIVYPMGWYRQAPGKERELVATITRGGSTNYADSVKGRFTISRDNAKNTVYLQMNSLKPEDTAVYYCAKGWTNRYPWPGRFRTLYDYWGQGTQVTVSS	low polyreactivity
QVQLVESGGGLVQAGGSLRLSCAASGRIFIVYVMGWYRQAPGKERELVAGITLSGGNTYYADSVKGRFTISRDNAKNTVYLQMNSLKPEDTAVYYCAAGWYGIEMDYWGQGTQVTVSS	high polyreactivity
QVQLVESGGGLVQAGGSLRLSCAASGRIFIYNAMGWYRQAPGKEREFVAAISSSGGSTYYADSVKGRFTISRDNAKNTVYLQMNSLKPEDTAVYYCAAGGWPYSGGWFFQPNYDYWGQGTQVTVSS	low polyreactivity
